{
  "source": "paper PMC9352680",
  "about": "“A comprehensive thermodynamic model for RNA binding by the Saccharomyces cerevisiae Pumilio protein PUF4”",
  "data": [
    {"biological_target": "T1, PUF4 RNA-binding domain (Saccharomyces cerevisiae, UniProt P25339 537-888)", "T1 sequence": "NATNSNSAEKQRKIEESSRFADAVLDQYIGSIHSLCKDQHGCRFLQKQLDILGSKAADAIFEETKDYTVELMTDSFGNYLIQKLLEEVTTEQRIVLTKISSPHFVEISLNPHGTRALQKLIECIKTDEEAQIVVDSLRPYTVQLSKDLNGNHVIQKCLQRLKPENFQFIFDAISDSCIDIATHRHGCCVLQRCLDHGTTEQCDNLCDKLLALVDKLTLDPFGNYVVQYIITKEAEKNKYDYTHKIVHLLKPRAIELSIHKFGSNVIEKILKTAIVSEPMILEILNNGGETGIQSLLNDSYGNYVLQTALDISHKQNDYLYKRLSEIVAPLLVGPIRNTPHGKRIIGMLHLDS", "experiment": "Mg; RNA-MaP; 20 mM Na-HEPES pH 7.4, 30 mM KOAc, 0.75 mM MgCl2, 0.1% Tween-20, 5% glycerol, 0.1 mg/mL BSA, 2 mM DTT; 25 C; 0.0125-409.6 nM protein", "conditions": "tags: N-His6-TEV cleaved; C-SNAP kept, Cy3B-labelled; label: tethered on chip by stalled RNA polymerase", "units": {"Kd": "nM"}, "values": [
      {"binder": "UCUCUUGCUAUAUUAUUAUUUCUCUU (ssRNA)", "note": "[Id_ii_S1_P5E.3_K5.2_C5.2_[C-2G]_[T-1C]_H5.2_A5.1_F5.1_T5.2_[A12T]]", "Kd": 391},
      {"binder": "UCUCUUUGUAUGGUAUCUCUU (ssRNA)", "note": "[Ib_S1_P4E.1_K4.1_C4.1_H4.1_A4.1_[A6G]_[T7G]_F4.1_T4.1]", "Kd": 14.6},
      {"binder": "UCUCUUUCUAUAUUAUUACUUCUCUU (ssRNA)", "note": "[Id_ii_S1_P5E.3_K5.2_C5.2_[C-2T]_[T-1C]_H5.2_A5.1_F5.1_T5.2_[T11C]_[A12T]]", "Kd": 390},
      {"binder": "UCUCUUUGUAUAUUAUUAUUUCUCUU (ssRNA)", "note": "[Id_ii_S1_P5E.3_K5.2_C5.2_[C-2T]_[T-1G]_H5.2_A5.1_F5.1_T5.2_[A12T]]", "Kd": 0.826},
      {"binder": "UCUCUUCCUGUAUUAUUAAAUCUCUU (ssRNA)", "note": "[Id_ii_S1_P5E.2_K5.1_C5.2_[T-1C]_H5.1_A5.1_F5.1_T5.2_[T11A]]", "Kd": 18.8},
      {"binder": "UCUCUUCUUGUAUUAUUAUUUCUCUU (ssRNA)", "note": "[Id_ii_S1_P5E.2_K5.1_C5.2_H5.1_A5.1_F5.1_T5.2_[A12T]]", "Kd": 4.09},
      {"binder": "UCUCUUUCUAUAUUAUUAACUCUCUU (ssRNA)", "note": "[Id_ii_S1_P5E.3_K5.2_C5.2_[C-2T]_[T-1C]_H5.2_A5.1_F5.1_T5.2_[T11A]_[A12C]]", "Kd": 581},
      {"binder": "UCUCUUUCUAUAUUAUUAAUUCUCUU (ssRNA)", "note": "[Id_ii_S1_P5E.3_K5.2_C5.2_[C-2T]_[T-1C]_H5.2_A5.1_F5.1_T5.2_[T11A]_[A12T]]", "Kd": 615},
      {"binder": "UCUCUUUCUAUAUUAUUAAGUCUCUU (ssRNA)", "note": "[Id_ii_S1_P5E.3_K5.2_C5.2_[C-2T]_[T-1C]_H5.2_A5.1_F5.1_T5.2_[T11A]_[A12G]]", "Kd": 582},
      {"binder": "UCUCUUUGUAUUAUGAUCUCUU (ssRNA)", "note": "[Ia_S1_P5E.1_K5.1_C5.1_H5.1_A5.1_F5.1_[T9G]_T5.1]", "Kd": 15.3},
      {"binder": "UCUCUUUAUAUAUUAUUAGCUCUCUU (ssRNA)", "note": "[Id_ii_S1_P5E.3_K5.2_C5.2_[C-2T]_[T-1A]_H5.2_A5.1_F5.1_T5.2_[T11G]_[A12C]]", "Kd": 13.7},
      {"binder": "UCUCUUCAUGUAUUAUUAGCUCUCUU (ssRNA)", "note": "[Id_ii_S1_P5E.2_K5.1_C5.2_[T-1A]_H5.1_A5.1_F5.1_T5.2_[T11G]_[A12C]]", "Kd": 3.39},
      {"binder": "UCUCUUGCUAUAUUAUUACAUCUCUU (ssRNA)", "note": "[Id_ii_S1_P5E.3_K5.2_C5.2_[C-2G]_[T-1C]_H5.2_A5.1_F5.1_T5.2_[T11C]]", "Kd": 509},
      {"binder": "UCUCUUCUUGUAUUAUUAACUCUCUU (ssRNA)", "note": "[Id_ii_S1_P5E.2_K5.1_C5.2_H5.1_A5.1_F5.1_T5.2_[T11A]_[A12C]]", "Kd": 5.25},
      {"binder": "UCUCUUCAUGUAUUAUUAGUUCUCUU (ssRNA)", "note": "[Id_ii_S1_P5E.2_K5.1_C5.2_[T-1A]_H5.1_A5.1_F5.1_T5.2_[T11G]_[A12T]]", "Kd": 3.5},
      {"binder": "UCUCUUCUUGUAUUAUUAGCUCUCUU (ssRNA)", "note": "[Id_ii_S1_P5E.2_K5.1_C5.2_H5.1_A5.1_F5.1_T5.2_[T11G]_[A12C]]", "Kd": 2.47},
      {"binder": "UCUCUUGCUAUAUUAUUACGUCUCUU (ssRNA)", "note": "[Id_ii_S1_P5E.3_K5.2_C5.2_[C-2G]_[T-1C]_H5.2_A5.1_F5.1_T5.2_[T11C]_[A12G]]", "Kd": 549},
      {"binder": "UCUCUUUCUAUAUUAUUAUUUCUCUU (ssRNA)", "note": "[Id_ii_S1_P5E.3_K5.2_C5.2_[C-2T]_[T-1C]_H5.2_A5.1_F5.1_T5.2_[A12T]]", "Kd": 402},
      {"binder": "UCUCUUCAUGUAUUAUUAUCUCUCUU (ssRNA)", "note": "[Id_ii_S1_P5E.2_K5.1_C5.2_[T-1A]_H5.1_A5.1_F5.1_T5.2_[A12C]]", "Kd": 7.59},
      {"binder": "UCUCUUCGUGUAUUAUUAAAUCUCUU (ssRNA)", "note": "[Id_ii_S1_P5E.2_K5.1_C5.2_[T-1G]_H5.1_A5.1_F5.1_T5.2_[T11A]]", "Kd": 15},
      {"binder": "UCUCUUCCUGUAUUAUUAAUUCUCUU (ssRNA)", "note": "[Id_ii_S1_P5E.2_K5.1_C5.2_[T-1C]_H5.1_A5.1_F5.1_T5.2_[T11A]_[A12T]]", "Kd": 6.56},
      {"binder": "UCUCUUUGUAUAUUAUUAUCUCUCUU (ssRNA)", "note": "[Id_ii_S1_P5E.3_K5.2_C5.2_[C-2T]_[T-1G]_H5.2_A5.1_F5.1_T5.2_[A12C]]", "Kd": 0.576},
      {"binder": "UCUCUUGUUAUAUUAUUACCUCUCUU (ssRNA)", "note": "[Id_ii_S1_P5E.3_K5.2_C5.2_[C-2G]_H5.2_A5.1_F5.1_T5.2_[T11C]_[A12C]]", "Kd": 9},
      {"binder": "UCUCUUUAUAUAUUAUUAGUUCUCUU (ssRNA)", "note": "[Id_ii_S1_P5E.3_K5.2_C5.2_[C-2T]_[T-1A]_H5.2_A5.1_F5.1_T5.2_[T11G]_[A12T]]", "Kd": 22.2},
      {"binder": "UCUCUUCUUGUAUUAUUAUGUCUCUU (ssRNA)", "note": "[Id_ii_S1_P5E.2_K5.1_C5.2_H5.1_A5.1_F5.1_T5.2_[A12G]]", "Kd": 5.83},
      {"binder": "UCUCUUUGUAUAUUAUUAGCUCUCUU (ssRNA)", "note": "[Id_ii_S1_P5E.3_K5.2_C5.2_[C-2T]_[T-1G]_H5.2_A5.1_F5.1_T5.2_[T11G]_[A12C]]", "Kd": 0.703},
      {"binder": "UCUCUUCCUGUAUUAUUAUUUCUCUU (ssRNA)", "note": "[Id_ii_S1_P5E.2_K5.1_C5.2_[T-1C]_H5.1_A5.1_F5.1_T5.2_[A12T]]", "Kd": 7.47},
      {"binder": "UCUCUUCUUGUAUUAUUAAUUCUCUU (ssRNA)", "note": "[Id_ii_S1_P5E.2_K5.1_C5.2_H5.1_A5.1_F5.1_T5.2_[T11A]_[A12T]]", "Kd": 8.8},
      {"binder": "UCUCUUGCUAUAUUAUUAUCUCUCUU (ssRNA)", "note": "[Id_ii_S1_P5E.3_K5.2_C5.2_[C-2G]_[T-1C]_H5.2_A5.1_F5.1_T5.2_[A12C]]", "Kd": 307},
      {"binder": "UCUCUUCUUGUAUUAUUAUCUCUCUU (ssRNA)", "note": "[Id_ii_S1_P5E.2_K5.1_C5.2_H5.1_A5.1_F5.1_T5.2_[A12C]]", "Kd": 5.07},
      {"binder": "UCUCUUCAUGUAUUAUUAUUUCUCUU (ssRNA)", "note": "[Id_ii_S1_P5E.2_K5.1_C5.2_[T-1A]_H5.1_A5.1_F5.1_T5.2_[A12T]]", "Kd": 9.94}
    ]}
  ]
}
